Measured values published in patent publication US20240092930A1 (MABWELL SHANGHAI BIOSCIENCE, published 2024).

Tests used:
[1] = target: T1, recombinant mouse Trop-2-his protein (Cat.: 50922-M08H, Beijing Yiqiao Shenzhou Science and Technology Co., … (mouse, UniProt Q8BGV3 25-270)); assay: ELISA, coated mouse Trop-2-his 1 µg/ml
T1 construct: Bought protein; not shown: his tag
T1 sequence (looked up): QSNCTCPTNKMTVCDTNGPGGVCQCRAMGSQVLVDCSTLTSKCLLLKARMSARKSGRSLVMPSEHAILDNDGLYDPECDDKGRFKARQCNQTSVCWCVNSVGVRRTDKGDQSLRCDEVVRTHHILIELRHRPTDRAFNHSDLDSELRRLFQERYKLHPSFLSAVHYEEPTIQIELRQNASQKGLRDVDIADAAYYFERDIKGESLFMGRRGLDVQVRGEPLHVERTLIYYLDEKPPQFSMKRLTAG
Experimental: Washed with PBS 3 times, the plates were blocked with the added 5% BSA PBS at 37° C. for 60 min, and then washed 3 times with PBST. Different concentrations of h23-12 (serial dilutions of 14 concentrations obtained through 3-fold serially diluting a solution with an initial concentration of 10 μg/ml), h4-3 (serial dilutions of 12 concentrations obtained through 3-fold serially diluting a solution with an initial concentration of 3 μg/ml), and Sacituzumab (serial dilutions of 12 concentrations obtained through 3-fold serially diluting a solution with an initial concentration of 3 μg/ml) were added into the plates, with each concentration provided in a parallel well. The plates were incubated at 37° C. for 60 min, and then were washed 4 times with PBST. 1:5000 dilution of H1RP-anti-human Fc (Cat.: 109-035-098, Jackson ImmunoResearch) was added into the plates for incubation at 37° C. for 30 min. Afterwards, the plates were washed with PBST 4 times, and TMB substrate was added for color development at 37° C. for 10 min. Then 2M HCl was added to stop reaction; and absorbances at 450 nm and at 630 nm (as reference wavelength) were read, and A450 nm-630 nm values of the wells in the plates were recorded.

[2] = target: T2, recombinant human Trop-2-his protein (ACCESSION NO.: NP_002344.2, AA 1-274) (human, UniProt P09758 27-274); assay: BLI, antibody on AHC sensor, Trop-2-his 23, 30, 45, 75 nM
T2 construct: range 27-274; also called recombinant human Trop-2 protein; recombinant human Trop-2 extracellular domain; not shown: his tag
T2 sequence (looked up): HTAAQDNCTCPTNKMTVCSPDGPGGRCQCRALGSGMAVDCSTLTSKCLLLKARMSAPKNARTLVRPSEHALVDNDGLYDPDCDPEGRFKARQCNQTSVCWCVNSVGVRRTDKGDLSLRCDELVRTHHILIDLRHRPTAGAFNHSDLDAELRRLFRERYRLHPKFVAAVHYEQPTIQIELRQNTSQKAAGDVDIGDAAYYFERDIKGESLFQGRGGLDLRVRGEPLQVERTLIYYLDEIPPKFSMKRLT
Experimental: Affinities of the antibodies were determined by an assay including capturing Fc fragments of the antibodies with anti-human IgG Fc capture (AHC) biosensors using Octet QKe system instrument from Fortebio.
For the assay, each of the antibodies (h23-12, h4-3, and control antibody Sacituzumab) was diluted to 4 μg/ml in PBS, and was allowed to flow through the surface of an AHC biosensor (Cat.: 18-0015, PALL) for 120 s. Recombinant human Trop-2-his protein (ACCESSION NO.: NP_002344.2, AA 1-274) was used as a mobile phase. The Trop-2-his protein was used in following concentrations which corresponded to different antibodies: in case of h23-12, the Trop-2 was used in concentrations of 23, 30, 45, and 75 nM; in case of h4-3, it was used in concentrations of 23, 30, 45, and 60 nM; and in case of Sacituzumab, it was used in concentrations of 23, 30, 45, and 75 nM. The binding time was 100 s and the dissociation time was 300 s. When the assay was finished, data from which the response values of blank control had been deducted were fitted to a 1:1 Langmuir binding model using software, and then kinetic constants for antigen-antibody binding were calculated.

[3] = target: T2, recombinant human Trop-2-his protein …; assay: BLI, antibody on AHC sensor, Trop-2-his 60 nM
Experimental: 5-6 days after cell transfection, culture supernatants were purified through ProA affinity chromatography column to obtain different humanized antibodies. Affinities of the obtained antibodies were determined by an assay including capturing Fc fragments of the antibodies with anti-human IgG Fc capture (AHC) biosensors using Octet QKe system instrument from Fortebio. For the assay, each of the humanized antibodies and control antibody Sacituzumab was diluted to 4 μg/ml in PBS, and was allowed to flow through the surface of an AHC biosensor (Cat.: 18-0015, PALL) for 120 s. Recombinant human Trop-2-his protein (ACCESSION NO.: NP_002344.2, AA 1-274) was used as a mobile phase, and its concentration was 60 nM. The binding time was 100 s and the dissociation time was 300 s. When the assay was finished, data from which the response values of blank control had been deducted were fitted to a 1:1 Langmuir binding model using software, and then kinetic constants for antigen-antibody binding were calculated.
Affinities of the antibodies obtained from the combinations of mutants of murine antibody 11-4, chimeric antibody ch11-4 and control antibody Sacituzumab to recombinant human Trop-2-his protein were determined by ForteBio (Table 11).

[4] = target: T2, recombinant human Trop-2-his protein …; assay: ELISA, coated Trop-2-his 0.2 µg/ml
Experimental: Plates were coated with recombinant human Trop-2-his protein (ACCESSION NO.: NP_002344.2, AA 1-274) at a concentration of 0.2 μg/ml overnight at 4° C. and then blocked with 5% BSA for 60 min in a constant temperature incubator at 37° C. Chimeric antibodies ch3-11, ch4-3, ch17-1, ch11-4, and ch23-12 and control antibody Sacituzumab (serial dilutions of 8 concentrations in total obtained through 3-fold serially diluting a solution with an initial concentration of 2 μg/ml) were added into the plates which were then incubated in a constant temperature incubator at 37° C. for 60 min. The plates were washed with PBST 4 times, and 1:5000 dilution of HRP-anti-human Fc (Cat.: 109-035-098, Jackson ImmunoResearch) was added into the plates for reaction for 45 min. TMB (Cat.: ME142, GalaxyBio, Beijing) substrate was added for color development for 15 min, and then 2M HCl was added to stop reaction. Absorbances at 450 nm and at 630 nm (as reference wavelength) were read, and A450 nm-630 nm values of the wells in the plates were recorded.

B1: Sacituzumab (antibody, human IgG1, kappa, V domains shown)
VH: QVQLQQSGSELKKPGASVKVSCKASGYTFTNYGMNWVKQAPGQGLKWMGWINTYTGEPTYTDDFKGRFAFSLDTSVSTAYLQISSLKADDTAVYFCARGGFGSSYWYFDVWGQGSLVTVSS
VL: DIQLTQSPSSLSASVGDRVSITCKASQDVSIAVAWYQQKPGKAPKLLIYSASYRYTGVPDRFSGSGSGTDFTLTISSLQPEDFAVYYCQQHYITPLTFGAGTKVEIKR
notes: expressed in HEK293; also called control antibody Sacituzumab; Saituzumab
binding result [1]: no binding (tested: up to 3 µg/ml) | Kd [2]: 941 pM | koff [2]: 0.000194 s⁻¹ | kon [2]: 208000 M⁻¹ s⁻¹ | Kd [3]: 784 pM | EC50 [4]: 271 pM

B2: h23-12-25 (antibody, human IgG1, kappa, V domains shown)
VH: QVQLVQSGAEVKKPGASVKVSCKASGYTFTSYWMHWVRQAPGQGLEWMGEITPSDNYGSYNQKFKGRVTITRDTSTSTAYMELSSLRSEDTAVYYCARGHGNYVSFDYWGQGTLVTVSS
VL: DIQMTQSPSSLSASVGDRVTITCRASQDISNYLNWYQQKPGKAPKLLIYYTSRLESGVPSRFSGSGSGTDFTLTISSLQPEDFATYFCQQGYTLPPYTFGQGTKLEIKR
notes: also called h32-12
binding result [1]: no binding (tested: up to 10 µg/ml) | Kd [2]: 640 pM | koff [2]: 0.000114 s⁻¹ | kon [2]: 178000 M⁻¹ s⁻¹
